Measured values published in patent US20230399385A1 (NANJING VAZYME BIOTECH, published 2023).

Columns and labels:
[1] = molecular target: T1, SARS-CoV-2 RBD (receptor binding domain of the spike protein of SARS-CoV-2; Vazyme Biotech) (SARS-CoV-2, UniProt P0DTC2 319-541); experiment: biolayer interferometry, ForteBio Octet RED96e, RBD 100 nM to 3.13 nM, 1:1 Langmuir model
[2] = molecular target: T1, SARS-CoV-2 RBD (receptor binding domain …); experiment: HTRF ACE2/RBD binding assay (665/620 ratio): Antibody 5-10 titrated, blocked ligand ACE2
[3] = molecular target: SARS-CoV-2 spike (S) glycoprotein, wild-type, on pseudotyped virus (SARS-CoV-2, UniProt P0DTC2 14-1273); experiment: cell-based or functional assay
[4] = molecular target: T1, SARS-CoV-2 RBD (receptor binding domain …); experiment: ELISA: SARS-CoV-2 RBD coated on the plate, Antibody 5-10 titrated, detected with anti-human IgG-HRP/TMB, OD450
[5] = molecular target: T1, SARS-CoV-2 RBD (receptor binding domain …); experiment: method not stated in this sentence (summary of Example 1); biolayer interferometry in Example 2

B1: Antibody 5-10 (antibody, V domains shown)
VH: EVQLLESGGGLVQPGGSLRLSCAASGFTFSSYAMSWVRQAPGKGLEWVSAIVGSGGSTYYADSVKGRFIISRDNSKNTLYLQMNSLRAEDTAVYYCAKSLIYGHYDILTGAYYFDYWGQGTLVTVSS
VL: DIQMTQSPSSVSASVGDRVTIPCRASQGIGNWLAWYQQKPGKAPKLLIYAASSLQSGVPSRFSGSGSGTDFTLTISSLQPEDFATYYCQQANSFPPFGQGTRLEIK
notes: also called anti-SARS-CoV-2 RBD Antibody 5-10; monoclonal Antibody 5-10
- Kd [1]: 4.32 nM
- IC50 [2]: 0.231 µg/mL
- IC50, neutralizing effects on SARS-CoV-2 pseudovirus [3]: 0.0425 µg/mL
- EC50 [4]: 0.0269 µg/mL
- Kd [5]: 4.31 nM
